From article PMC3102065, “The Hexameric Structures of Human Heat Shock Protein 90” (PLoS ONE, 2011)
Where “and” joins values, the source holds several entries; their conditions need not be identical. Equal values may be shown once.

Key:
[1] = target: the molecule itself; experiment: crystal structure; MC-HSP90 in three crystal forms (C222_1 with cis-DEP, P2_1 with cisplatin, R32 with Silver Bullets No. 18); 2.5 M ammonium sulfate, 0.1 M tri-sodium citrate pH 5.4-5.8; molecular replacement
[2] = target: the molecule itself; experiment: AUC; sedimentation velocity of fractions from the S-300 column, 0.3 mg/ml in 100 mM Tris-HCl, 45,000 rpm, 20°C, c(s) distribution (SEDFIT)
[3] = target: the molecule itself; experiment: crystal structure; MC-HSP90-Ct, P6_322 crystal; 2.6 M ammonium sulfate, 0.1 M tri-sodium citrate pH 5.0, Silver Bullets No. 70; molecular replacement

B1: MC-HSP90 (N-terminal truncated human HSP90α, middle segment and carboxy-terminal domain, residues 293–732) (domain or fragment)
chain: not shown
notes: two extra Ala residues encoded after the Factor Xa cleavage site; found at the N-terminus by MALDI-MS of the dissolved crystal; human heat shock protein 90α, residues 293-732 (M and C domains), from a full length cDNA (NM_005348.2; 732 residues); In solution a mixture of dimer, tetramer and hexamer; The reverse primer encodes six His after the last residue; also called truncated HSP90; wild-type …
stoichiometry N [1]: 6 | stoichiometry N [2]: 2 and 4

B2: MC-HSP90-Ct (human HSP90α residues 293–697, C-terminal 35 residues also truncated) (domain or fragment)
chain: not shown
notes: two extra Ala residues encoded after the Factor Xa cleavage site (same forward primer as MC-HSP90); human heat shock protein 90α, residues 293-697; Purified by a protocol similar to that of MC-HSP90; The reverse primer printed for this construct appears to encode eight His; also called C-terminal tail truncated MC-HSP90-Ct; source: E. coli BL21 (DE3), purified (Ni-NTA, Factor Xa cleavage, second …)
stoichiometry N [3]: 6

B3: MC-HSP90 W320A (domain or fragment)
chain: not shown
notes: two extra Ala residues encoded after the Factor Xa cleavage site (made on the plasmid pGEX-6p-1-MC-HSP90); human heat shock protein 90α, residues 293-732, with W320A; also called mutant W320A; mutant protein W320A of MC-HSP90; source: E. coli BL21 (DE3), expressed and purified as the wild-type MC-HSP90; not shown: GST, N-terminal, cleaved
stoichiometry N [2]: 6 and 2 and 4
